# Reference: the nanobody polyreactivity screen of Harvey et al. (2022)
# Assay: yeast display, Sf9 membrane polyspecificity reagent, FACS + sequencing; frameworks hold sequencing errors
# Method in brief: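 Nanobodies came from a synthetic yeast display library in Saccharomyces cerevisiae BJ5465, induced with galactose for 36–48 hours and stained for 1 hour at 4 °C with 10% biotinylated, detergent-solubilized Sf9 membrane reagent. Cells were enriched on streptavidin microbeads and then FACS-sorted, with low and high (top ~1%) gates set on anti-HA fluorescence for expression and streptavidin fluorescence for reagent binding. Each polyreactivity label reflects the gate a clone came from. Genes were amplified by colony PCR, sequenced by MiSeq 2 × 250 and filtered by CDR length.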
row,Sequence,polyreactivity (PSR sort gate)
1,QVQLVESGGGLVQAGGSLRLSCAASGRTYRYAMGWYRQAPGNERELVAAIRWSGGSTYYADSVKGRFTISRDNAKNTVYIQMNSLKPEDTAVYYCAADSYATRYYYWGQGTQVTVSS,high polyreactivity
2,QVQLVESGGGLVQAGGSLRLSCAASGRTYVRNGMGWYRQAPGKERELVAAISRGGSTNYADSVKGRFTISRDNAKNTVYLEMNSLKPEDTAVYYCNARTAEYRPYYYRYNYWGQGTQVTLSS,high polyreactivity
3,QVQLVESGGGLVQAGGSLRLSCAASGRTYVYTMGWYRQAPGKERELVAAIRYSGGRTYYADSVKGRFTISRDNAMNTVYLQMNSLKPEDTAVYYCAARNYATGVRYDYWGQGTQVTVSS,high polyreactivity
4,QVQLVESGGGLVQAGGSLRLSCAASGSFFSTYAMGWYRQAPGKERELVAAISVSGSSTYYADSVKGLFTISRDNAKNTVYLQMNSLKPEDTAVYYCNKAFRSVRPRRRYDYWGQGTQVTVSS,low polyreactivity
5,QVQLVESGGGLVQAGGSLRLSCAASGSICYGYTMGWYRQAPGKEREFVAAITGSGGSTYYADSVKGRFTISRDNAKNTVYLQMNSLKPEDTAVYYCAARRYVNRRYDYWGQGTQVTVSS,high polyreactivity
6,QVQLVESGGGLVQAGGSLRLSCAASGSIDWNAMGWYRQAPGKEREFVAAISSSGGRTSYADSVKGRFTISRDNAKNTVYLQMNSLKPEDTAVYYCAAAGSYDGDRYYYWGQGTQVTVSS,high polyreactivity
7,QVQLVESGGGLVQAGGSLRLSCAASGSIFAANAMGWYRQAPGKEREFVASISRSGGSTYYADSVKGRFTISRDNAKNTVYLQMTSLKPEDTAVYYCATRTRIYSARDHYGYWGQGTQVTVSS,low polyreactivity
8,QVQLVESGGGLVQAGGSLRLSCAASGSIFAANTMGWYRQAPGKERELVAAITGSGASTYYADSVKGRFTISRDNAKNTVYLQMNSLKPEDTAVYYCAARRYTSYYKDGWYAYYYWGQGTQVTVSS,high polyreactivity
9,QVQLVESGGGLVQAGGSLRLSCAASGSIFAAYAMGGYRQAPGKERELVATIRWTSGSTYYADSVKGRFTISRDNAKNTVYLQMNSLKPEDTAVFYCAAQKNKYYWPRFGYWGQGTQVTGSS,high polyreactivity
10,QVQLVESGGGLVQAGGSLRLSCAASGSIFAAYAMGWYRQAPGKERELVAAISLDDGSTYADSVKGRFTISRDNAKNTVYLQMNSLKPEDTAVYYCNARYKSRLYPRYDYWGQGTQVTVSS,high polyreactivity
11,QVQLVESGGGLVQAGGSLRLSCAASGSIFADNAMGWDRQAPGKERELVAVISFSGSSTYYADSVKGRFTISRDNAKNTVYFQMNSVKPEDTAVYYWNAVRYRLERFDYWGQGTQVTVSS,high polyreactivity
12,QVQLVESGGGLVQAGGSLRLSCAASGSIFADYAMGWYRQAPGKERELVAAITGSGGRTYYADSVKGRFTISRDNAKNTVYLQMNSLKPEDTAVYYCAAYQVVWDPYTRYDYWGQGTQVTVSS,low polyreactivity
13,QVQLVESGGGLVQAGGSLRLSCAASGSIFADYAMGWYRQAPGKERELVAAITYTDDRTYYADSVKGRFTISRDNAKNTVYLQMNSLKPEDTAVYYCNRVFTCRYGYRYEYWGQGSQVTVSS,high polyreactivity
14,QVQLVESGGGLVQAGGSLRLSCAASGSIFADYTMGWYRQAPGKERELVAPINYRDGGTSYADSVKGRFTISRDKANNTVYLQMNSLKPEDTAVYYCTKQVDLSGQWDYWYGYYTYDYWGPGTQVTVSS,low polyreactivity
15,QVQLVESGGGLVQAGGSLRLSCAASGSIFAGNTMGWSRQAPGKEREFVASIRSSSGSTYYADSVKGRFTISRDNAKNTVYLQMNSLKPEDTAVYYCARVAPASGVRWYYYWGQGTQVTVSS,high polyreactivity
16,QVQLVESGGGLVQAGGSLRLSCAASGSIFAGNVMGWYRQAPGKERELVAAISRRGGRTYYADSVKGRFTISRDNAKNTVYLQMNSLKPEDTAVYYCAARRDPVLGNSDFWGQGTQVTVSS,high polyreactivity
17,QVQLVESGGGLVQAGGSLRLSCAASGSIFAGYAMGLYRQAPGKERELVAAISRSGDSTYYADSVKGRFTISRDNAKNTVYLQMNSLKPEDTAVYYCAAVLSYSYVRYNYWGQGTQVTVSS,high polyreactivity
18,QVQLVESGGGLVQAGGSLRLSCAASGSIFAGYAMGWYRQAPGKERELVAAISWSGGGTYYADSVKGRFTISRDNAKNTVYLQMNSLKPEDTAVYYCNAYGYRHRGNGYWGQGTQVTVSS,high polyreactivity
19,QVQLVESGGGLVQAGGSLRLSCAASGSIFAGYVMGWYRPAPGKERELVAATYYADSVKGRFTISRDNAKNTVYLQMNSLKPEDTAVYYCNAESLYTHYNDTSLTVEYGYWGQGTQVTVSS,low polyreactivity
20,QVQLVESGGGLVQAGGSLRLSCAASGSIFAHYAMGWYRQAPGKERELVAAISKNAGSTYYADSVKGRFTISRDNAKNTVYLQMNSLKPEDTAVYYCATGYQKPYSSDYWGQGTQVTVSS,high polyreactivity
21,QVQLVESGGGLVQAGGSLRLSCAASGSIFAHYTMGWYRQAPGKERELVAAISGSGGSTYYADSVKGRFTISCDNAKNTVYLQMNSLKPEDTAVYYCNKRYRPVGPYDYWGQGTQVTVSS,high polyreactivity
22,QVQLVESGGGLVQAGGSLRLSCAASGSIFAINAMGWYRQAPGKERELVARISWSGGRTYYADSVKGRFTISRDNAKNTVYLQMNSLKPEDTAVYYCAKRYYKSLNRDEFDSWGQGTQVTVSS,high polyreactivity

row,Sequence,polyreactivity (PSR sort gate)
1,QVQLVESGGGLVQAGGSLRLSCAASGSIFAKNAMGWYRQAPGKERELVAAISSSGGRTYYADSVKGRFTISRDNAKNTVYLQMNSLKPEDTAVYYCAADLRYIYWSYYYWGQGTQVTVSS,low polyreactivity
2,QVQLVESGGGLVQAGGSLRLSCAASGSIFAKYAMGWYRQAPGKERELVAAISSGGSTYYADSVKGRFTISRDNAKNTVYIQMNSLKPEDTAVYYCAADYGSDYTKGDYWGQGTQVTVSS,low polyreactivity
3,QVQLVESGGGLVQAGGSLRLSCAASGSIFALYAMGWYRQAPGKERELVAAISYRGGRTYYADSVKGRFTISRDNAKNTVYLQMNSLKPEDTAVYFCATDFPGKFDYWGQGTQVTVSS,low polyreactivity
4,QVQLVESGGGLVQAGGSLRLSCAASGSIFALYAMGWYRQAPGQERELVAAISYRGGRTYYADSVKGRFTISRDNAKNTVYLQMNSLKPEDTAVYYCNARAFPFGTGVQGFGFGYWGQGTQVTVSS,low polyreactivity
5,QVQLVESGGGLVQAGGSLRLSCAASGSIFAPDVMGWYRQAPGKERELVAAITESGGRTYYAASVKGRFTISRDNAKNTVYLQMNSLKPVDTAVYSCAARTFDRNRQLRRQWYDYWGLGTQVTVSS,high polyreactivity
6,QVQLVESGGGLVQAGGSLRLSCAASGSIFAPNAMGWYRQAPGKEREFVAGITQSGTSTYADSVKGRFTISRDNAKNTVYLQMNSLKPEDTAVYYCAAEYYYGYWYGYIISYDYWGQGTQVTVSS,high polyreactivity
7,QVQLVESGGGLVQAGGSLRLSCAASGSIFAPYAMGWTRQAPGKERELVASISVRSGSTHYADSVKGRFTISRDNAKNTVYLQMNCLNPEDTAVYYCNARTYDYSWVWESRWWYYYWGQGTQVTVSS,high polyreactivity
8,QVQLVESGGGLVQAGGSLRLSCAASGSIFAPYSMGWYRQAPGKERELVAAITWSGDSTYYADSVKGRFTISRDNAKNTVYLQMNSMKPEDTSVYYCATEEVYGQGNYWGQGTQLTVSS,low polyreactivity
9,QVQLVESGGGLVQAGGSLRLSCAASGSIFAQYAMGWYRQAPGKERELVATISSVGSTNYADSVKGRFTISRDNAKNTVYLQMNSLKPEDTAVYYCNAVRSGWGYFYGLNYWGQGTQVTVSS,low polyreactivity
10,QVQLVESGGGLVQAGGSLRLSCAASGSIFARYAMGWYRQAPGKEREFVAAITGRGGTTNYADSVKGRFTISRDNAKNTVYLQMNSLKPEDTAVYYCNARDRYREHDYWGQGTQVTVSS,high polyreactivity
11,QVQLVESGGGLVQAGGSLRLSCAASGSIFARYAMGWYRQAPGKERELVATITRGGSTNYADSVKGRFTISRDNAKNTVYLQMNSLKPDDTAVYYCARTSYGRLDYWGQGPQVTVSS,low polyreactivity
12,QVQLVESGGGLVQAGGSLRLSCAASGSIFASNAMGCYRQAPGKERELVAAINSGDSTNYADSVKGRFTISRDNAKNTVYLQMNSLKPEDTAVYYCARGLEERYDYWGQGTQVTVSS,low polyreactivity
13,QVQLVESGGGLVQAGGSLRLSCAASGSIFASNAMGWYRQAPGKERELVAAISTSGGSTYYADSVKGRFTISRDNAKNTVYLQMNSLKPEDTAVYYCAKLLARGFRIWQDYDYWGQGTQVTVSS,low polyreactivity
14,QVQLVESGGGLVQAGGSLRLSCAASGSIFASNTMGWYRQAPGKERELVAAISFRGGRTYYADSVKGRFTISRDNAKNTVYLQMNSLKPEDTAVYYCNAAYGRYPRGGYWGQGTQVTVSS,high polyreactivity
15,QVQLVESGGGLVQAGGSLRLSCAASGSIFASNTMGWYRQAPGKERELVAGITKIGSSTYYADSVKGRFTISRDHAKNTVYLQMNSLKPEDTSVYYSNAYGPNIYSSRYDYWGQGTQVTLSS,low polyreactivity
16,QVQLVESGGGLVQAGGSLRLSCAASGSIFASYDMGWYRQAPGKERELVARITFNGGSTYYADSVKGRFTISRDNAKNTVYLQMNSLKPEDTAVYYCANDYRYIFIYPYGWTRYDYWGQGTQVTVSS,low polyreactivity
17,QVQLVESGGGLVQAGGSLRLSCAASGSIFATYAMGWYRQAPGKERELGAAISRSGGSTYYADSVKGRFTISRDNAKNTVYLQMNSLKPEDTAVYYCAAVRGYGWWWSRWGSREYWGQGTQVTVSS,high polyreactivity
18,QVQLVESGGGLVQAGGSLRLSCAASGSIFATYAMGWYRQAPGKERELVAAISSSGSRTYYADSVKGRFTNSRDNAKNTVYLQMNSLKPEDTAVYYCAAGSGRFRPGYGYWGQGTQVTVSS,high polyreactivity
19,QVQLVESGGGLVQAGGSLRLSCAASGSIFATYGMGWYRQAPGKERELVAAITSSGGSTYYADSVKGRFTISRDNAKNTVYLQMNSLKPEDTAVYYCAADSYIIWYGTVVSYGEDSWGQGTQVTVSS,low polyreactivity
20,QVQLVESGGGLVQAGGSLRLSCAASGSIFAVYAMGWYRQAPGKERELVAAISSRGSSTYYADSVKGRFTISRDNAKNTVYLQMNSLIPEDTEVYYCAARPGIRSYPPGYGYWGQGTQVTVSS,low polyreactivity
21,QVQLVESGGGLVQAGGSLRLSCAASGSIFAVYAMGWYRQAPGKERELVASISRTGTTNYADSVKGRFTISRDNAKNTVYLQMNSLKPEDSAVYYCNADAYLYYKYHWGFTFYQYVYWGQGTEVTVSS,low polyreactivity
